# Results from patent US20100081795A1 (Bayer, published 2010).
# B1: human RG1 monoclonal antibody B (antibody, V domains shown)
# VH: EVQLVQSGGGLVHPGGSLRLSCAGSGFTFSSYVMHWLRQAPGKGLEWVSVIGTGGVTHYADSVKGRFTISRDNAKNSLYLQMNSLRAEDMAMYYCARWGYYGSGSYENDAFDIWGQGTMVTVSS
# VL: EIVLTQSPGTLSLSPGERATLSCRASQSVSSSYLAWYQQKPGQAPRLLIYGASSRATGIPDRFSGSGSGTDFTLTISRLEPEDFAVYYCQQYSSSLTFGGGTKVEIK
# notes: Hybridoma-derived human antibody with a kappa light chain; also called Mab B
# Biological target: T1, purified, native RG1 protein produced in transfected BHK cells (human, UniProt Q9BUD6 27-331)
# T1 construct: also called BHK-RG1; nRG1
# T1 chain: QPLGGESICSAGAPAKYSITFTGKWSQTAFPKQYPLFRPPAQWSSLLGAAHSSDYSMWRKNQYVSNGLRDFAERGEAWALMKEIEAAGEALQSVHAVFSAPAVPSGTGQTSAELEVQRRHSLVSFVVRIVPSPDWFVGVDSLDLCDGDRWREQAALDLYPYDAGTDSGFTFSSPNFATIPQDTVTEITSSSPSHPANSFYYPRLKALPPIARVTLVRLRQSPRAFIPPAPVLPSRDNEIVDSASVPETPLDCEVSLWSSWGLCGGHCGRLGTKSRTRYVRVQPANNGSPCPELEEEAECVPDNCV
# Test: BIAcore SPR; mab captured on anti-human IgG Fc, soluble BHK-RG1 12.5-400 nM; 1:1 Langmuir fit
# Description: Kinetic constants (KD, kₐ and kd) of mab binding to native RG1 protein were determined by BIAcore using a capture format in which soluble, native RG1 protein was bound to immobilized mab on a sensor chip. ImmunoPure rabbit anti-human IgGFc (Pierce, 31142) was covalently immobilized to the Sensor Chip CM5 (Biacore, BR-1000-12) using standard amine coupling methods. 100 ug/ml antibody diluted in 10 mm acetate, pH 4.0 was used at 5 ul/min. HBS-EP (Biacore, BR-1001-88) was used as mobile phase. Unreacted sites were blocked with ethanolamine. Mabs were diluted to 200 nM with HBS and 50 μl was injected per cycle at 10 ul/min. Serial dilutions of BHK-RG1 (12.5-400 nM) were bound to the immobilized mab. Dissociation kinetics were measured immediately after the antigen injection was completed at 20 μl/min for 8 minutes. The surface was regenerated following each cycle using 25 ul of 10 mm glycine, pH 1.8 and then washed with HBS.
# Typically, five concentrations and a media control were run. Data were fit to a 1:1 Langmuir model using the software provided by the instrument manufacturer (BIAevaluation 3.0), and kinetic constants were calculated. Equilibrium constants were in the nanomolar range with favorable dissociation rates (10⁻⁴ s⁻¹).
binder,measurement,value
B1,Kd,8.4 nM
same,koff,0.00023 s⁻¹
same,kon,29000 M⁻¹ s⁻¹
